For orientation: EC50 means the concentration giving half of the maximal effect.

Assay [1] concerns the target T1, full-length human Nectin-4 on cells (human, UniProt Q96NY8 32-510).
T1 sequence: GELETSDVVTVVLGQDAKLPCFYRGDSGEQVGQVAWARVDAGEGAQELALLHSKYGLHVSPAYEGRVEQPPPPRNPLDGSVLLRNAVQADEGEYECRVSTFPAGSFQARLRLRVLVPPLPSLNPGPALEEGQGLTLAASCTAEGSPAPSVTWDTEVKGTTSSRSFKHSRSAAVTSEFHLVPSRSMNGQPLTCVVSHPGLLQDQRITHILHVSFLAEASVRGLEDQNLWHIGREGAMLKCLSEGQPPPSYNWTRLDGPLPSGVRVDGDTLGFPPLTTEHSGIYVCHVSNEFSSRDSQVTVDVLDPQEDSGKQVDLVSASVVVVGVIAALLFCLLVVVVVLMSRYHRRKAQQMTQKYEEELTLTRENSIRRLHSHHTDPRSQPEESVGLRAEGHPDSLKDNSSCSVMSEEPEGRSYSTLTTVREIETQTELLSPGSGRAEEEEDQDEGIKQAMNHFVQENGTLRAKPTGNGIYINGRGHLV
The assay can be described thus: cell-based or functional assay.

The target in assay [2] is T1, full-length human Nectin-4 on cells. The experiment in a line: flow cytometry, CHO-Nectin-4 cells. On the procedure:
(§1) The binding specificity of the disclosed anti-Nectin-4 antibodies was also assessed by FACS. Briefly, CHO-Nectin-4 cells (vs. parental CHO cells) or endogenous cell lines expressing Nectin-4 (T-47D) were incubated with dilutions of purified recombinant antibodies. Cells were washed, and specific antibody binding was detected with Alexa 647 labeled goat anti-mouse IgG antibody. Flow cytometric analysis was performed on a flow cytometry instrument (Intellicyte, IQue plus, Sartorius).
(§2) N4_mAb 1 to N4_mAb 8 antibodies bind to CHO-Nectin-4 cells and SKBR3 cells by FACS.
For orientation: A flow cytometer gives signals particle by particle.

The target in assay [3] is T2, human recombinant Nectin-4 protein (extracellular domain) (human, UniProt Q96NY8 32-349).
T2 construct: also called recombinant Nectin-4 (extracellular domain); human Nectin-4 recombinant protein
T2 sequence: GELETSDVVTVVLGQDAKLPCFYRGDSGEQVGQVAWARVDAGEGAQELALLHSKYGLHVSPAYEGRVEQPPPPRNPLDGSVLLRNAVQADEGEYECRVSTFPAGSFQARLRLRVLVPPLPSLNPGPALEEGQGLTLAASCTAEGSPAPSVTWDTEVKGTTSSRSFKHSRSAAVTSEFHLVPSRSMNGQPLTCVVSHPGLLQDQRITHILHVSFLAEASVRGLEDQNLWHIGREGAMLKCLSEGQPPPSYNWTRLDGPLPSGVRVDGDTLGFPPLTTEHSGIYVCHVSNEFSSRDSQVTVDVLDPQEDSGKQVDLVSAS
The experiment in a line: ELISA, recombinant human Nectin-4 coated on plate. On the procedure:
The binding specificity of the disclosed anti-Nectin-4 antibodies was assessed by ELISA. Briefly, human recombinant Nectin-4 protein was directly coated to ELISA plates. Purified antibodies were then added to the plates followed by detection by goat-anti-mouse IgG-HRP. After addition of ABTS substrate, ELISA plates were read using an ELISA plate reader (Bioteck). The controls depicted in FIG. 2: PC1 refers to a reference antibody (known to be a Nectin-4 specific recombinant antibody, made by Novarock Biotherapeutics, lot no: 03042020KD); the negative control is a human IgG1 (Dendritics, catalog no: DDXCH01P-100, lot no: DDXCH01-028).
The ELISA binding EC50 values of the eight anti-Nectin-4 antibodies, N4_mAb 1 to N4_mAb 8 and the positive control antibody were listed in Table 3 below.
(An ELISA detects its analyte on a solid surface through an enzyme-linked reagent.)

The target of assay [4] is T1, full-length human Nectin-4 on cells. The experiment in a line: flow cytometry, SKBR3 cells (endogenous Nectin-4). On the procedure:
as §1, §2

Assay [5] has the same target. The experiment in a line: flow cytometry competition on CHO-Nectin-4 cells; competitor biotinylated human TIGIT. On the procedure: The ability of disclosed Nectin4-specific antibodies to block TIGIT binding to CHO-Nectin-4 cells was assessed by FACS. Briefly, CHO-Nectin-4 cells were incubated with dilutions of the disclosed purified recombinant antibodies. Then, biotinylated human TIGIT protein (SinoBiologic, catalog: 10917-H08H-B, lot: LC13AP0902) was added to the plate. After 30-minute incubation, cells were washed, followed by adding Streptavidin Alexa 647 (1:1000) to the samples. After a 30 minute incubation, the samples were analyzed on a flow cytometry instrument (Intellicyte, IQue plus, Sartorius) for TIGIT blocking activity. The positive control antibody used in this blocking assay is PC2, a Nectin-4 antibody with known blocking activity.

For assay [6] the target is unchanged. The assay can be described thus: flow cytometry competition on CHO-Nectin-4 cells; competitor biotinylated human Nectin-1-His. On the procedure: The ability of disclosed Nectin4-specific antibodies to block Nectin-1 binding to Nectin-4 expressing cells (CHO cells transfected with human Nectin-4) was determined by FACS. Briefly, CHO-Nectin-4 cells were incubated with dilutions of the disclosed Nectin-4 purified recombinant antibodies. Then, biotinylated human Nectin-1 with His tag (ACROBiosystems, catalog number: PV1-H5223, lot: 733-38GS1-47, 0.75 ug/ml) was added to the plate. After 30-minute incubation, cells were washed, followed by adding Streptavidin Alexa 647 (1:1000) to the samples. After a 30 minute incubation, the samples were analyzed on a flow cytometry instrument (Intellicyte, IQue plus, Sartorius) for Nectin-1 blocking activity. The positive control antibody used in this blocking assay is a reference antibody (known to be a recombinant Nectin-4 specific antibody, made by Novarock Biotherapeutics, lot: 03042020KD).

B1: N4_mAb 1 (antibody, human IgG1, V domains shown)
VH: QVQLKQSGPGLVQPSQSLSITCTVSGFSLTNYGVNWVRQPPGKGLEWLGVIWSGGSTDYNAAFISRLSISKDISKSQVFFKMNSLQADDTAKYYCAREGYDGYAMDYWGQGTSVTVSS
VL: DIQMTQSPASLSVSVGETVTITCRASENIFSSLAWYQQKQGKSPQLLVYGATNLADGVPSRFSGSGSGTQYSLKINSLQSEDFGTYWCQHFWGNPWTFGGGTKLEIK
notes: Tested as chimera (murine variable regions, human IgG1/kappa constants); not shown: human IgG1 constant region (Uniprot P01857); human Kappa light chain constant region (UniProt P01834)
As to B1, the “Endocytosis EC50 (cell killing with MMAF-conjugated Fab anti-hFc), Nectin-4-CHO cells” value (“Endocytosis EC50 … Nectin-4-CHO cells” below) in assay [1] worked out at 0.36 nM. The “Endocytosis EC50 (cell killing with MMAF-conjugated Fab anti-hFc), SKBR3 cells” value (“Endocytosis EC50 … SKBR3 cells” below) in assay [1] is 2.14 nM. Moreover, the EC50 was 0.29 nM in assay [2]; 0.14 nM in assay [3]; 0.24 nM in assay [4]; 0.91 nM in assay [5]; 0.78 nM in assay [6].

B2: N4_mAb 3 (antibody, human IgG1, V domains shown)
VH: EVQLQQSGAELVKPGASVKLSCTVSGFNIKDTYMHWVKQRPEQGLEWIGRIDPANGNTKYDPKFQGKATIIADKASNTAYLQLSSLTSEDAAVYYCAHYYGSSYFAMDCWGQGTSVTVSS
VL: DIVMTQSHKFMSTSVGDRVSITCKASQDVSTAVAWYQQKPGQSPKLLIYWASTRHTGVPDRFTGSGSGTDYTLTISSVQTEDLALYYCQQHYSTPLTFGAGTKLELK
notes: Tested as chimera (human IgG1/kappa constants); not shown: human IgG1 constant region (Uniprot P01857); human Kappa light chain constant region (UniProt P01834)
For B2, in assay [1], the “Endocytosis EC50 … Nectin-4-CHO cells” value turned out to be 0.53 nM. The “Endocytosis EC50 … SKBR3 cells” value in assay [1] worked out at 0.63 nM. For the same molecule, the EC50 in assay [2] was determined as 0.75 nM; in assay [3] it was 1.51 nM; in assay [4] it was 45 nM; in assay [5], 0.94 nM; in assay [6] it was 0.3 nM.

B3: N4_mAb 2 (antibody, human IgG1, V domains shown)
VH: QVQLKQSGPNLVQPSQSLSITCTVSGFSLTTYGAHWVRQSPGKGLEWLGVIWRGGSTDYNAAFMSRLSITKDNSKSQVFFKMNSLQADDTAIYYCAKIGYDGYAMDNWGQGTSVTVSS
VL: DFQVTQSPASLSASVGETVTITCRTSENIHNYLAWYQQKQGKSPQLLVYNAKTLADGVPSRFSGSGSGTQYSLKINSLQPEDFGTYYCQHFWSSPWTFGGGTKLEIK
notes: as for B2
As for B3, in assay [1], the “Endocytosis EC50 … Nectin-4-CHO cells” value was 0.56 nM. Moreover, the “Endocytosis EC50 … SKBR3 cells” value in assay [1] is 0.74 nM. For the same molecule, the EC50 worked out at 0.64 nM in assay [2]; 0.12 nM in assay [3]; 1.8 nM in assay [4]; 3.04 nM in assay [5]; 0.64 nM in assay [6].

B4: N4_mAb 4 (antibody, human IgG1, V domains shown)
VH: DVQLQESGPDLVKPSQSLSLTCTVTGYSITSAYNWHWIRQFPGNKLEWMGYIHYSGRTNYNPSLKSRISITRDTSKNQFFLQLNSLTTEDTATYYCARWITTATGWYLDVWGAGTTVTVSS
VL: not shown
notes: as for B2
Regarding B4, the “Endocytosis EC50 … Nectin-4-CHO cells” value in assay [1] was determined as 0.63 nM. Further, in assay [1], the “Endocytosis EC50 … SKBR3 cells” value worked out at 1.58 nM. In addition, the EC50 in assay [2] is 0.57 nM; in assay [3] it was 1.12 nM; in assay [4], 1.8 nM.

B5: N4_mAb 6 (antibody, human IgG1, V domains shown)
VH: QVQLQQSGPELVKPGASVRISCKASGYTFTTYYIHWVKQRPGQGLEWIGWIYPGNVNTKYTENFKDKATLTADKSSSTAYMQLSSLTSEDSAVYFCARGLYYFDFWGQGTTLTVSS
VL: SIVMTQTPKFLLVSAGDRVTITCKASQSVNNDVAWYQQKPGQSPKLLIYYASNRDTGVPDRFTGSGFGTDFTFTISSVQAEDLAVYFCQQDYSSPYTFGGGTKLEIK
notes: as for B1
On to B5, for which, in assay [1], the “Endocytosis EC50 … Nectin-4-CHO cells” value came to 0.44 nM. Besides, in assay [1], the “Endocytosis EC50 … SKBR3 cells” value was 1.78 nM. For the same molecule, the EC50 turned out to be 0.12 nM in assay [2]; 0.03 nM in assay [3]; 0.04 nM in assay [4]; 0.31 nM in assay [5]; 0.12 nM in assay [6].

B6: N4_mAb 7 (antibody, human IgG1, V domains shown)
VH: QVQLQQSGPELVKPGASVKMSCKASGYTFTTYYIHWVKQRPGQGLEWIGWIYPGNAGIKSNEKFKGKTTLTADKSSSTAYMLLSSLTSEDSAIYFCARGVYFFDYWGQGTTLTVSS
VL: SIVMTQTPKFLLVSAGDRVTITCKASQSVNNDVSWFQQKPGQSPKLLIYYASNRYTGVPDRFSGSGYGTDFTFTITTVQAEDLAVYFCQQDYSSPYTFGGGTKLEIK
notes: as for B1
Turning to B6, the “Endocytosis EC50 … Nectin-4-CHO cells” value in assay [1] turned out to be 0.21 nM. Also, the “Endocytosis EC50 … SKBR3 cells” value in assay [1] was found to be 0.61 nM. The concentration giving a half-maximal response (EC50) in assay [2] came to 0.18 nM; in assay [3], 0.04 nM; in assay [4] it was 0.05 nM; in assay [5], 0.75 nM; in assay [6], 0.21 nM.

B7: N4_mAb 8 (antibody, human IgG1, V domains shown)
VH: QVQLQQSGPVLVKPGASVRISCKASGYTFTSYYIHWVKQRPGQGLEWIGWIYPGNVNTKYNENFRDKATLTADKSSSTSYMQLSSLTSEDSAVYFCARGIYYFDYWGQGTTLTVSS
VL: IIVMTQTPKFLLVSAGDRVTITCKASQSVNNDVAWYQEKPGQSPKLLIYYASNRDTGVPDRFTGSGYGTDFTFTISTVQAEDLAVYFCHQDYSSPFTFGSGTKLEIK
notes: as for B1
For B7, the “Endocytosis EC50 … Nectin-4-CHO cells” value in assay [1] stood at 0.43 nM. Further, in assay [1], the “Endocytosis EC50 … SKBR3 cells” value came to 0.99 nM. For the same molecule, the EC50 was 0.23 nM in assay [2]; 0.14 nM in assay [3]; 0.05 nM in assay [4]; 1.37 nM in assay [5]; 0.33 nM in assay [6].

B8: N4_mAb 5 (antibody, human IgG1, V domains shown)
VH: EVQLQQSGPDLVKPGASVKISCKASGYSFTGHYMHWVKQSHGKSLEWIGRVNPNNGGSSYNQKFKDKAILTVDKSSTTAYMELRSLTSEDSAVYYCARDPLGGSYGFAYWGQGTLVTVSA
VL: DIVLTQSPASLAVSLGQRATISCRASQSVTTSSYSYMHWYQQKPGQPPKLLIKYASNLESGVPARFSGSGSGTDFTLNIHPVEEEDTATYYCQHSWEIPYTFGGGTKLEMK
notes: as for B2
With B8, the “Endocytosis EC50 … Nectin-4-CHO cells” value in assay [1] came to 0.45 nM. For the same molecule, the “Endocytosis EC50 … SKBR3 cells” value in assay [1] was 0.85 nM. Besides, the concentration for a half-maximal effect (EC50) in assay [2] came to 0.38 nM; in assay [3], 0.13 nM; in assay [4], 0.52 nM; in assay [5], 3.11 nM; in assay [6] it was 0.5 nM.

Source of the values: patent US12723100 (CSPC MEGALITH BIOPHARMACEUTICAL, dated 2026).
